The results in this text go back to patent US20220281976A1.

Assay [1] concerns the target human CD33 (human) (UniProt P20138). The assay is described as follows: flow cytometry, human primary monocytes.
Assay [2] has the same target. The assay is described as follows: flow cytometry, human primary macrophages.
Assay [3] shares this target. The assay is described as follows: flow cytometry, human primary dendritic cells.
The target is the same in assay [4]. The assay is described as follows: flow cytometry, human primary T cells.

Sequence of human CD33 (human) (P20138 18-364): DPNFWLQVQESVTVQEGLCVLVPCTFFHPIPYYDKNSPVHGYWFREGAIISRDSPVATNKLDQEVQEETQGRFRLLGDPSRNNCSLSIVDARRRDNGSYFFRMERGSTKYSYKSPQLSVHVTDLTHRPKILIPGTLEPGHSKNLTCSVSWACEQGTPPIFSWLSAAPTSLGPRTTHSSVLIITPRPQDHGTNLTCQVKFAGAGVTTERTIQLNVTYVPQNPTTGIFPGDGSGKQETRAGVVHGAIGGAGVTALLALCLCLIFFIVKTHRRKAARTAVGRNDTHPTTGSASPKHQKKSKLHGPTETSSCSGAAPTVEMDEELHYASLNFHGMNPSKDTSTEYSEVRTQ

Take isotype control antibody: in assay [1], the Monocyte MFI came to 43.2. Moreover, the Macrophage MFI in assay [2] worked out at 451. In addition, the DC MFI in assay [3] is 178. This substance also yielded a T cell MFI in assay [4] of 42.9.
